The results in this text go back to the supplement of paper PMC7877785.

± gives the uncertainty stated by the source.

The data set in a line: self-splicing fitness, log relative to wild type (ln ratio); higher = more splicing; Tetrahymena group I intron in knt gene, E. coli kanamycin selection, DiMSum; sequences stand for … in CUCUCU…GGAGGGAAAAGUUAUCAGGCAUGCACCUGGUAGCUAGUCUUUAAACCAAUAGAUUGCAUCGGUUUAAAAGGCAAGACCGUCAAAUUGCGGGAAAGGGGUCAACAGCCGUUCAGUACCAAGUCUCAGGGGAAACUUUGAGAUGGCCUUGCAAAGGGUAUGGUAAUAAGCUGACGGACAUGGUCCUAACCACGCAGCCAAGUCCUAAGUCAACAGAUCUUCUGUUGAUAUGGAUGCAGUUCACAGACUAAAUGUCGGUCGGGGAAGAUGUAUUCUUCUCAUAAGAUAUAGUCGGACCUCUCCUUAAUGGGAGCUAGCGGAUGAAGUGAUGCAACACUGGAGCCGCUGGGAACUAAUUUGUAUGCGAAAGUAUAUUGAUUAGUUUUGGAGUACUCGUGGUCG
Put shortly: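 Library with all eight P1ex-region intron nucleotides randomised, intron inside the knt kanamycin-resistance gene on pET-22b(+), in E. coli BL21(DE3). Cells grew overnight at 37°C or 30°C on LB agar with or without 25 μg/mL kanamycin (plus 100 μg/mL carbenicillin, 50 μM IPTG, 0.2% rhamnose), in six replicate transformations. Pooled colonies were amplicon-sequenced on Illumina HiSeq 2500. DiMSum fitness is the error-weighted combination of wild-type-normalised replicate fold changes, kanamycin versus none.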

For GAGAAGCAAUAUUACGAAAC, the “self-splicing fitness (ln)” value reads like this: (30 °C) -2.29 ± 0.36; (37 °C) -1.71 ± 0.48. The corresponding values for CCCCAGCAAUAUUACGGGUG are -3.8 ± 0.12 and -2.91 ± 0.13. For the sequence ACUCAGCAAUAUUACGACCC, the “self-splicing fitness (ln)” value is, setting by setting: (30 °C) -0.845 ± 0.19; (37 °C) -2.22 ± 0.22. The like results for ACUUAGCAAUAUUACGCAGC were, in that order, -1.98 ± 0.4 and -1.43 ± 0.19. The corresponding values for UAUAAGCAAUAUUACGUCGC are -3.29 ± 0.28 and -2.24 ± 0.37.

As for GUCCAGCAAUAUUACGAUAU, the “self-splicing fitness (ln)” value was -0.337 ± 0.056 (30 °C) and 0.114 ± 0.065 (37 °C). On to CGGGAGCAAUAUUACGUUAA, for which the “self-splicing fitness (ln)” value runs as follows: (30 °C) -2.63 ± 0.28; (37 °C) -1.68 ± 0.3. On to GAGGAGCAAUAUUACGGGCC, for which the “self-splicing fitness (ln)” value (30 °C) was -2.4 ± 0.4. For the sequence CGGAAGCAAUAUUACGGACU, the “self-splicing fitness (ln)” value is, setting by setting: (30 °C) -0.00733 ± 0.094; (37 °C) -0.0682 ± 0.14. Take AUGAAGCAAUAUUACGCCAC: the “self-splicing fitness (ln)” value is -0.249 ± 0.39 (30 °C) and -1.9 ± 0.41 (37 °C). The corresponding values for ACAAAGCAAUAUUACGGUAC are -3.33 ± 0.13 and -2.3 ± 0.15.

Regarding UUAGAGCAAUAUUACGAAGU, the “self-splicing fitness (ln)” value (30 °C) is -3.03 ± 0.21 and the “self-splicing fitness (ln)” value (37 °C) was -1.98 ± 0.28. The like results for AUACAGCAAUAUUACGAGCG were, in that order, -1.63 ± 0.096 and -0.55 ± 0.1. GCUAAGCAAUAUUACGGUCU: the “self-splicing fitness (ln)” value (30 °C) is -0.772 ± 0.083 and the “self-splicing fitness (ln)” value (37 °C) was -1.06 ± 0.085. Consider GUCUAGCAAUAUUACGCUGC, for which the “self-splicing fitness (ln)” value (37 °C) is -2.71 ± 0.34. For GACAAGCAAUAUUACGUGCG, the “self-splicing fitness (ln)” value runs as follows: (30 °C) -1.16 ± 0.068; (37 °C) -0.532 ± 0.081. The corresponding values for CUAUAGCAAUAUUACGUAUC are -5.21 ± 0.32 and -2.48 ± 0.14. Regarding CGCGAGCAAUAUUACGGAUA, under “30 °C”, the “self-splicing fitness (ln)” value was -1.66 ± 0.27.

Take ACGGAGCAAUAUUACGAUGC: the “self-splicing fitness (ln)” value by setting is: (30 °C) -3.69 ± 0.43; (37 °C) -1.74 ± 0.29. The corresponding values for CUAUAGCAAUAUUACGAUGC are -4.97 ± 0.38 and -2.41 ± 0.2. The corresponding values for CCCGAGCAAUAUUACGCAGA are -3.96 ± 0.25 and -2.71 ± 0.33. The like results for ACAUAGCAAUAUUACGCCCU were, in that order, -0.862 ± 0.083 and -0.134 ± 0.1.

For the sequence GUGCAGCAAUAUUACGUCCU, the “self-splicing fitness (ln)” value by setting is: (30 °C) -0.637 ± 0.12; (37 °C) -0.541 ± 0.096. With UUCCAGCAAUAUUACGAUCA, the “self-splicing fitness (ln)” value runs as follows: (30 °C) -1.26 ± 0.2; (37 °C) -1.27 ± 0.2.

Turning to UGAAAGCAAUAUUACGUGGG, the “self-splicing fitness (ln)” value (30 °C) is -3.67 ± 0.2 and the “self-splicing fitness (ln)” value (37 °C) is -2.4 ± 0.17. On to CUGUAGCAAUAUUACGCGGG, for which the “self-splicing fitness (ln)” value runs as follows: (30 °C) -3.04 ± 0.24; (37 °C) -2.07 ± 0.31. GGACAGCAAUAUUACGCUCU: for the setting “30 °C”, the “self-splicing fitness (ln)” value was -2.19 ± 0.25. For GGGCAGCAAUAUUACGCUAU, the “self-splicing fitness (ln)” value runs as follows: (30 °C) -1.13 ± 0.077; (37 °C) -0.411 ± 0.094. Regarding AAGUAGCAAUAUUACGUAUC, the “self-splicing fitness (ln)” value (30 °C) was -2.36 ± 0.14 and the “self-splicing fitness (ln)” value (37 °C) was -1.15 ± 0.11. With ACGCAGCAAUAUUACGCUUU, the “self-splicing fitness (ln)” value is, setting by setting: (30 °C) -1.69 ± 0.079; (37 °C) -1.15 ± 0.11. The like results for AUACAGCAAUAUUACGGCUC were, in that order, -0.178 ± 0.075 and 0.157 ± 0.1. The like results for UUCCAGCAAUAUUACGGCAG were, in that order, -0.446 ± 0.075 and -0.096 ± 0.11. The like results for ACGAAGCAAUAUUACGCGUG were, in that order, -1.13 ± 0.051 and -0.442 ± 0.074. On to GGUAAGCAAUAUUACGGUCU, for which the “self-splicing fitness (ln)” value (30 °C) was 0.187 ± 0.083 and the “self-splicing fitness (ln)” value (37 °C) is -0.0802 ± 0.087.

CUGUAGCAAUAUUACGGAAC: the “self-splicing fitness (ln)” value (37 °C) was -2.87 ± 0.34. Consider CUAGAGCAAUAUUACGGCUC, for which, under “30 °C”, the “self-splicing fitness (ln)” value is -2.94 ± 0.25. As for UAUCAGCAAUAUUACGUCCG, the “self-splicing fitness (ln)” value (30 °C) was -0.361 ± 0.11 and the “self-splicing fitness (ln)” value (37 °C) was found to be 0.121 ± 0.14. Turning to UGCGAGCAAUAUUACGGUUC, where the note is “30 °C”, the “self-splicing fitness (ln)” value was -2.75 ± 0.28. As for GUUCAGCAAUAUUACGUCUG, the “self-splicing fitness (ln)” value runs as follows: (30 °C) -2.67 ± 0.085; (37 °C) -1.54 ± 0.072. Consider UAGGAGCAAUAUUACGACUU, for which the “self-splicing fitness (ln)” value (30 °C) was -0.556 ± 0.14 and the “self-splicing fitness (ln)” value (37 °C) was determined as 0.485 ± 0.19.
